Measured values published in patent US8153424B2, “Method of in vitro differentiation of neural stem cells, motor neurons and dopamine neurons from primate embryonic stem cells” (Wisconsin Alumni Research Foundation, priority 2001, dated 2012).

Tested on: hESC-derived neuroectodermal cells
Experiment: Midbrain regionalization and DA neuron differentiation, immunocytochemistry and cell counting
Type: cell-based, human
Conditions: FGF8 100 ng/ml applied at day nine for six days, expanded in FGF8 four days, then SHH six days
Description: Differentiation and enrichment of neuroectodermal cells. hESC colonies were detached from MEF layer by the treatment of the culture with 0.2 mg/ml of dispase (Roche Diagnostics) and grown as floating cell aggregates (embryoid body) for four days with a daily change of ESC medium. They were then grown in an adherent substrate in a neural medium consisting of DMEM/F12 (2:1), supplemented with N2 (Gibco), 0.1 mM non-essential amino acids, 2 μg/ml heparin with a medium change every other day. The ESC aggregates attached and formed individual colonies at around day six. […] The neural rosettes were isolated through differential enzymatic response (Zhang et al., supra, 2001). Growth factors were added during the course of differentiation to influence regionalization (see results).
DA neuron differentiation. The enriched neuroectodermal cells were dissociated by 0.025% trypsin and 0.27 mM EDTA in PBS at 37° C. for 10-15 minutes and plated onto 12-mm coverslips (pre-coated with 100 μg/ml polyornithine and 10 μg/ml laminin) at a density of 40,000-50,000 cells/coverslip. […]
Immunocytochemistry and cell quantification. […] Staining was visualized with a Nikon fluorescence microscope. […] The cells in ten visual fields were randomly selected and counted from each coverslip.

B1: FGF8: fibroblast growth factor 8 (protein, UniProt P55075 23-233, looked up)
Fibroblast growth factor 8: QEGPGRGPALGRELASLFRAGREPQGVSQQHVREQSLVTDQLSRRLIRTYQLYSRTSGKHVQVLANKRINAMAEDGDPFAKLIVETDTFGSRVRVRGAETGLYICMNKKGKLIAKSNGKGKDCVFTEIVLENNYTALQNAKYEGWYMAFTRKGRPRKGSKTRQHQREVHFMKRLPRGHHTTEQSLRFEFLNYPPFTRSLRGSQRTWAPEPR
En-1 expression in nestin-expressing neuroectodermal cells: En-1 expression was observed
